Laboratory results published in patent US20100310640A1.

T1: HLA-DR DRB1*0101 (human)
T1 chain 1: not shown
T1 chain 2: not shown

T2: HLA-DR DRB1*0401 (human)
T2 chain 1: not shown
T2 chain 2: not shown

T3: HLA-DR DRB1*0404 (human)
T3 chain 1: not shown
T3 chain 2: not shown

T4: HLA-DR DRB1*0405 (human)
T4 chain 1: not shown
T4 chain 2: not shown

T5: HLA-DR DRB1*0701 (human)
T5 chain 1: not shown
T5 chain 2: not shown

T6: HLA-DR DRB1*1101 (human)
T6 chain 1: not shown
T6 chain 2: not shown

T7: HLA-DR DRB1*1302 (human)
T7 chain 1: not shown
T7 chain 2: not shown

T8: HLA-DR DRB5*0101 (human)
T8 chain 1: not shown
T8 chain 2: not shown

T9: HLA-DR DRB4*0101 (human)
T9 chain 1: not shown
T9 chain 2: not shown


Tests used:
Experiment in all cases: radioligand inhibition, purified HLA-DR
Conditions in all cases: remark: other sources report otherwise
HLA-DR DRB1*0101 (human) = target: T1, HLA-DR DRB1*0101 (human)
HLA-DR DRB1*0401 (human) = target: T2, HLA-DR DRB1*0401 (human)
HLA-DR DRB1*0404 (human) = target: T3, HLA-DR DRB1*0404 (human)
HLA-DR DRB1*0405 (human) = target: T4, HLA-DR DRB1*0405 (human)
HLA-DR DRB1*0701 (human) = target: T5, HLA-DR DRB1*0701 (human)
HLA-DR DRB1*1101 (human) = target: T6, HLA-DR DRB1*1101 (human)
HLA-DR DRB1*1302 (human) = target: T7, HLA-DR DRB1*1302 (human)
HLA-DR DRB5*0101 (human) = target: T8, HLA-DR DRB5*0101 (human)
HLA-DR DRB4*0101 (human) = target: T9, HLA-DR DRB4*0101 (human)

Binder | IC50 (HLA-DR DRB1*0101 (human)) | IC50 (HLA-DR DRB1*0401 (human)) | IC50 (HLA-DR DRB1*0404 (human)) | IC50 (HLA-DR DRB1*0405 (human)) | IC50 (HLA-DR DRB1*0701 (human)) | IC50 (HLA-DR DRB1*1101 (human)) | IC50 (HLA-DR DRB1*1302 (human)) | IC50 (HLA-DR DRB5*0101 (human)) | IC50 (HLA-DR DRB4*0101 (human))
RHLYQGCQVVQGNLE [Her/neu.47] |  | 422 nM |  |  | 4940 nM |  | 5040 nM |  | 
GCQVVQGNLELTYLP [Her/neu.52] | 2600 nM | 2740 nM |  |  | 1970 nM |  |  |  | 
SITVSASGTSPGLSA [CEA.671 peptide 9919.0143] | 2810 nM | 75 nM | 11 nM | 3570 nM | 1560 nM | 3320 nM | 592 nM | 15100 nM | 
APTISPLNTSYRSGE [CEA.239 peptide 9919.0121] | 2430 nM | 295 nM | 40 nM | 5990 nM | 10600 nM |  | 125 nM |  | 
FRELVSEFSRMARDP [Peptide 9019.0096] |  | 22 nM | 51 nM |  | 5060 nM | 381 nM |  | 380 nM | 
EPKKLRPPPARTPCQ [Peptide 9019.0188] |  | 806 nM |  |  |  |  |  |  | 
DNSIRPEELLQMELL [Cyclin D1.129] | 4550 nM | 4680 nM | 2800 nM | 16500 nM | 6650 nM |  | 939 nM |  | 87 nM
FYTLHVIKSDLVNEE [CEA.119 peptide 9019.0114] |  |  | 169 nM | 41 nM | 56 nM |  |  | 4500 nM | 22 nM
KELAVFREKVTEQHR [Peptide 9019.0186] | 2040 nM |  | 26 nM |  |  |  |  |  | 

Further lines, results first:

IC50 (HLA-DR DRB1*0101 (human)) | IC50 (HLA-DR DRB1*0401 (human)) | IC50 (HLA-DR DRB1*0404 (human)) | IC50 (HLA-DR DRB1*0405 (human)) | IC50 (HLA-DR DRB1*0701 (human)) | IC50 (HLA-DR DRB1*1101 (human)) | IC50 (HLA-DR DRB1*1302 (human)) | IC50 (HLA-DR DRB5*0101 (human)) | IC50 (HLA-DR DRB4*0101 (human)) | Binder
11 nM | 40 nM | 32 nM | 760 nM | 2490 nM | 692 nM | 343 nM | 1880 nM |  | TEILKGGVLIQRNPQ [Her2/neu.146]
164 nM |  | 13100 nM |  |  |  |  |  | 4700 nM | GARMPCAELVREPGC [Peptide 9019.0181]
1280 nM |  |  |  | 16000 nM |  | 5770 nM |  |  | AEVLFRCPPCTPERL [Peptide 9019.0178]
44 nM |  | 29 nM | 1550 nM |  |  | 921 nM | 36 nM |  | VCGIQNSVSANRSDP [CEA.570 peptide 9012.0135]
682 nM | 181 nM |  | 942 nM | 31 nM |  |  |  | 2700 nM | INGIPQQHTQVLFIA [CEA.629 peptide 9019.0139]
40 nM |  | 4.1 nM | 2110 nM |  |  | 8860 nM |  |  | GVTVWELMTFGAKPY [Peptide 9019.0090]
1020 nM | 791 nM |  |  | 6180 nM |  | 5690 nM |  |  | TMNMLGGGGSAGRKP [Peptide 9019.0184]
764 nM | 7950 nM |  |  | 249 nM |  | 356 nM | 17000 nM | 281 nM | MRKIVATWMLEVCEE [Cyclin D1.56]
21 nM | 31 nM | 34 nM |  | 1700 nM |  | 43 nM | 10200 nM | 63 nM | GYVIGTQQATPGPAY [CEA.81 peptide 9019.0110]
40 nM | 580 nM |  | 7820 nM |  |  | 37 nM | 14100 nM | 42 nM | SSYLSGANLNLSCHS [CEA.603 peptide 9012.0137]
28 nM | 5540 nM |  |  |  |  |  |  |  | PERLAACGPPPVAPP [Peptide 9019.0179]
